Consider two molecules from publication PMC4695088, “An Oomycete CRN Effector Reprograms Expression of Plant HSP Genes by Targeting their Promoters”.

For data set [1], the target named is T1, MBP:PsCRN108 (Phytophthora sojae, UniProt A0A0M5K865 18-820).
T1 sequence: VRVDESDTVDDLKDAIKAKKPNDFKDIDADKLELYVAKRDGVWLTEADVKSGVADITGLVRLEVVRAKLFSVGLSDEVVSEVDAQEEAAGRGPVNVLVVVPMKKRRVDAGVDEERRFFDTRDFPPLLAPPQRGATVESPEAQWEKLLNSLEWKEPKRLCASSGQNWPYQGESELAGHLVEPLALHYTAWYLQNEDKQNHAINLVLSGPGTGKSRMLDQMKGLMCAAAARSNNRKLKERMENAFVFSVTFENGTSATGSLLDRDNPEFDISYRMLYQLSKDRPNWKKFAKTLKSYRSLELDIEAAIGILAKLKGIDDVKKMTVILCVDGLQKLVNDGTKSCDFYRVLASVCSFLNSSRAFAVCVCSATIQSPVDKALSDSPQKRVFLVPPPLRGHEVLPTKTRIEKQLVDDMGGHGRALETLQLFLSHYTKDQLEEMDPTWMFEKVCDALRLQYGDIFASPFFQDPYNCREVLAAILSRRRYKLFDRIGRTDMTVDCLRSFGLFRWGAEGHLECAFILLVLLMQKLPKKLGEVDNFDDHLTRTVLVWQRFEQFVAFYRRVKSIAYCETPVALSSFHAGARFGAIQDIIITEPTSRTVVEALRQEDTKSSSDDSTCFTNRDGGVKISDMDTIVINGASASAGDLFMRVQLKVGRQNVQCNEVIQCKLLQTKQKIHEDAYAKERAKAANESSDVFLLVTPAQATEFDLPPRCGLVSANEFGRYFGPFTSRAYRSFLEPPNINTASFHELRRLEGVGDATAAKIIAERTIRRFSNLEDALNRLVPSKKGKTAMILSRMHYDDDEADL
The data set is described as follows: pull-down; 25 mM HEPES pH 8, 10 mM MgCl2, 20 mM KCl, 0.1 mM EDTA, 1 mM DTT, 100 ng poly(dI-dC), 5% glycerol, 25 C (EMSA 3 h; pull-down in the same buffer, 1 h + 1 h). Conditions: protein: recombinant; tags: N-terminal His, MBP (pHMTc); label: 5' biotin; blunt.

Data set [2] has as its target T2, MBP:AtHsfA1a (Arabidopsis thaliana, UniProt P41151 1-495). Described as above. Conditions: protein: recombinant; tags: N-terminal His, MBP (pHMTc); chain copies: 3; label: 5' biotin; blunt.
The target in another data set is T3, GST:PsCRN108 (Phytophthora sojae, UniProt A0A0M5K865 18-820).
T3 sequence: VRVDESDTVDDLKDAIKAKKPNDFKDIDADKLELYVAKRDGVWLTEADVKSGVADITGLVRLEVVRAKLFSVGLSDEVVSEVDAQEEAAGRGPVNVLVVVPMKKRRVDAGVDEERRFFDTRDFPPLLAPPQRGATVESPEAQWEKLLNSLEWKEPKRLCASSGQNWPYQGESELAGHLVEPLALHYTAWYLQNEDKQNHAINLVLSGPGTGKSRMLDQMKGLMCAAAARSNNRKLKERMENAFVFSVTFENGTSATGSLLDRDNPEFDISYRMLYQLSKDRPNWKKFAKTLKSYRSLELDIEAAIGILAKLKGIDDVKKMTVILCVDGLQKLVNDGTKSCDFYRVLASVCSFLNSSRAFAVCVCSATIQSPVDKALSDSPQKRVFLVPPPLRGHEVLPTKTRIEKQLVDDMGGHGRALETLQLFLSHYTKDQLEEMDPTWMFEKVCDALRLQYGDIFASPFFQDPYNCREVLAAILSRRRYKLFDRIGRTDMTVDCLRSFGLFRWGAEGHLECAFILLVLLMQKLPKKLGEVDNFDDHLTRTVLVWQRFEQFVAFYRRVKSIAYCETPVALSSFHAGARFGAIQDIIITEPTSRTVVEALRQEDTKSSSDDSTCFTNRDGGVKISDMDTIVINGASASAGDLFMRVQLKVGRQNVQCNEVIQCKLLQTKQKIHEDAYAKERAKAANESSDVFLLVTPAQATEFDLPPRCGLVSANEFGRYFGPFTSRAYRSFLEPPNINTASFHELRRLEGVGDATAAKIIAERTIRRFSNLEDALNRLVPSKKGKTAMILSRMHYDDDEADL
Described as above. The following applies: protein: recombinant; tags: N-terminal GST (pGEX-4T-2); label: 5' biotin; blunt.

In data set [3] the target is T1, MBP:PsCRN108. The data set is described as follows: EMSA; up to 6 uM protein, 5 nM DNA; weaker than AtHsfA1a; complex in wells; competed by unlabeled HSE; 25 mM HEPES pH 8, 10 mM MgCl2, 20 mM KCl, 0.1 mM EDTA, 1 mM DTT, 100 ng poly(dI-dC), 5% glycerol, 25 C (EMSA 3 h; pull-down in the same buffer, 1 h + 1 h). The following applies: protein: recombinant; tags: N-terminal His, MBP (pHMTc); label: 5' Alex660 (EMSA); blunt.

In data set [4] the target is T2, MBP:AtHsfA1a. The data set is described as follows: EMSA; up to 2 uM protein, 5 nM DNA; complex in wells; competed by unlabeled HSE; 25 mM HEPES pH 8, 10 mM MgCl2, 20 mM KCl, 0.1 mM EDTA, 1 mM DTT, 100 ng poly(dI-dC), 5% glycerol, 25 C (EMSA 3 h; pull-down in the same buffer, 1 h + 1 h). Conditions: protein: recombinant; tags: N-terminal His, MBP (pHMTc); chain copies: 3; label: 5' Alex660 (EMSA); blunt. A general note: Mobility shift assays separate free from complexed probe on a gel.

T2 sequence (P41151 whole entry): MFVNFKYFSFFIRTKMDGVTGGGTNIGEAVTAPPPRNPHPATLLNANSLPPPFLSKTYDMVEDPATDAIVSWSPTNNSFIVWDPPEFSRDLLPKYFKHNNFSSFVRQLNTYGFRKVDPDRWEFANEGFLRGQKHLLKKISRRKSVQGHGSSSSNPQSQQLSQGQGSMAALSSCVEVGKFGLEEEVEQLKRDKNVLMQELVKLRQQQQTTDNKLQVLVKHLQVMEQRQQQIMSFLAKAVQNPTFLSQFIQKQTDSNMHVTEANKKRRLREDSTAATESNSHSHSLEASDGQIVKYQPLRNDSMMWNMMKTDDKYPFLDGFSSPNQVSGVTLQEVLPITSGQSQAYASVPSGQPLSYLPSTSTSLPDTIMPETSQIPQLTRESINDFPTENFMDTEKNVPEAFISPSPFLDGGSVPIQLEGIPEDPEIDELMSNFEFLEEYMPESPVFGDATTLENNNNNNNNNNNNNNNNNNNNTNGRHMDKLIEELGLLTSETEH

B1: biotinylated 19 bp HSE (dsDNA)
DNA 1: CCAGAAGCTTCCAGAAGCC
DNA 2: GGCTTCTGGAAGCTTCTGG
As to B1, the binding result in the data set with MBP:PsCRN108 [1], with MBP:AtHsfA1a [2] and with GST:PsCRN108 was “binds” in each case.

B2: 19 bp HSE (dsDNA)
DNA 1: CCAGAAGCTTCCAGAAGCC
DNA 2: GGCTTCTGGAAGCTTCTGG
For B2, the binding result with MBP:PsCRN108 [3] and in the data set with MBP:AtHsfA1a [4] was “binds” each time.
